{"source": "patent US20230190869A1", "about": "“PEPTIDE INHIBITORS OF GUANINE NUCLEOTIDE EXCHANGE FACTOR H-1” (UCL Business Ltd, priority 2020, published 2023)", "molecules": {"B1": {"name": "F1: Fragment 1 of the auto-inhibitory C-terminal domain (CTD) of GEF-H1, SEQ ID NO: 2 (protein)", "chain": "SREDFPLIETEDEAYLRRIKMELQQKDKALVELLREKVGLFAEMTHFQVEEDSGGVALPALPRGLFRSESLECPRGERLLQDAIREVEGLKDLLVGPGVELLLTPRDPALLVDPDSGGSTSPGVTANGEARN", "modifications": "F1 amino acid sequence"}, "B2": {"name": "TAT-F1: F1 fused to a TAT sequence to render it membrane-permeable, SEQ ID NO: 7 (protein)", "chain": "MGGYGRKKRRQRRRGGGSGYPYDVPDYAGGSSSREDFPLIETEDEAYLRRIKMELQQKDKALVELLREKVGLFAEMTHFQVEEDSGGVALPALPRGLFRSESLECPRGERLLQDAIREVEGLKDLLVGPGVELLLTPRDPALLVDPDSGGSTSPGVTANGEARN", "modifications": "TAT-F1 amino acid sequence"}}, "key": {"MDCK and HEK293 cells [1]": {"tested_on": "MDCK and HEK293 cells", "test": "Cell toxicity: release of LDH in the medium (necrosis)", "format": "cell-based", "description": "(§1) (A and B) MDCK and HEK293 cells were incubated as described in previous figures with TAT-F1 or TAT-P5. Cell toxicity was then assessed by measuring release of LDH in the medium and caspase 3/7 activity in cell extracts. […] Direct lysis of cells served as a positive control in (A) whereas active caspases were used as controls in (B).\nas §1, with “stapled-P5.” for “TAT-F1 or TAT-P5.”, “for LDH release” for “in (A)”, “used” for “used as controls”, “caspase assays.” for “(B).”\n(§2) The potency of GEF-H1 inhibitors was analysed in cell-based assays to determine effectiveness of inhibition of GEF-H1 signalling and specificity for GEF-H1, and in cell-based assays modelling epithelial degeneration or inflammatory disease. Potential toxicity of the inhibitors was determined by measuring apoptosis (Caspase3/7 activation) and necrosis (release of […])."}, "MDCK and HEK293 cells [2]": {"tested_on": "MDCK and HEK293 cells", "test": "Cell toxicity: caspase 3/7 activity in cell extracts (apoptosis)", "format": "cell-based", "description": "as §1\nas §1, with “stapled-P5.” for “TAT-F1 or TAT-P5.”, “for LDH release” for “in (A)”, “used” for “used as controls”, “caspase assays.” for “(B).”\nas §2"}, "[3]": {"tested_on": "interaction between RhoA and constitutively active GEF-H1 (DH/PH module)", "test": "GST-RhoA pulldown of constitutively active GEF-H1 from cell extracts", "format": "binding", "conditions": "GST-RhoA pull down, FIG. 5", "description": "Recombinant fusion proteins of GST and RhoA were used for pulldown of constitutively active GEF-H1 from cell extracts. (A) Candidate peptide inhibitors were added to the pulldown. (B, C) Recombinant fragments from the CTD of GEF-H1 were added. Note, the further analysed P5 and F1 peptide inhibitors both block the interaction between RhoA and active GEF-H1.\n2) Active GEF-H1 binds with high affinity to nucleotide-free and GDP-bound RhoA, its physiological substrate. […] Thus, both F1 and P5 block GEF-H1 function by the same mechanism. Based on these functional and biochemical assays (FIGS. 4 and 5), F1 and P5 were selected for further analysis and refinement. Membrane permeable derivatives were synthesized for both inhibitors: TAT-F1 and TAT-P5.\nThe P5 sequence and modified versions thereof, are derived from the interaction surface of RhoA with the active site of GEF-H1 (i.e., the DH domain). […] The same is true for the F1 sequence, as it blocks binding of RhoA to a DH/PH domain construct (FIG. 5)."}, "GEF-H1 [4]": {"molecular_target": "T1, GEF-H1 (Canis lupus familiaris, UniProt Q865S3)", "T1 sequence (Q865S3 1-986)": "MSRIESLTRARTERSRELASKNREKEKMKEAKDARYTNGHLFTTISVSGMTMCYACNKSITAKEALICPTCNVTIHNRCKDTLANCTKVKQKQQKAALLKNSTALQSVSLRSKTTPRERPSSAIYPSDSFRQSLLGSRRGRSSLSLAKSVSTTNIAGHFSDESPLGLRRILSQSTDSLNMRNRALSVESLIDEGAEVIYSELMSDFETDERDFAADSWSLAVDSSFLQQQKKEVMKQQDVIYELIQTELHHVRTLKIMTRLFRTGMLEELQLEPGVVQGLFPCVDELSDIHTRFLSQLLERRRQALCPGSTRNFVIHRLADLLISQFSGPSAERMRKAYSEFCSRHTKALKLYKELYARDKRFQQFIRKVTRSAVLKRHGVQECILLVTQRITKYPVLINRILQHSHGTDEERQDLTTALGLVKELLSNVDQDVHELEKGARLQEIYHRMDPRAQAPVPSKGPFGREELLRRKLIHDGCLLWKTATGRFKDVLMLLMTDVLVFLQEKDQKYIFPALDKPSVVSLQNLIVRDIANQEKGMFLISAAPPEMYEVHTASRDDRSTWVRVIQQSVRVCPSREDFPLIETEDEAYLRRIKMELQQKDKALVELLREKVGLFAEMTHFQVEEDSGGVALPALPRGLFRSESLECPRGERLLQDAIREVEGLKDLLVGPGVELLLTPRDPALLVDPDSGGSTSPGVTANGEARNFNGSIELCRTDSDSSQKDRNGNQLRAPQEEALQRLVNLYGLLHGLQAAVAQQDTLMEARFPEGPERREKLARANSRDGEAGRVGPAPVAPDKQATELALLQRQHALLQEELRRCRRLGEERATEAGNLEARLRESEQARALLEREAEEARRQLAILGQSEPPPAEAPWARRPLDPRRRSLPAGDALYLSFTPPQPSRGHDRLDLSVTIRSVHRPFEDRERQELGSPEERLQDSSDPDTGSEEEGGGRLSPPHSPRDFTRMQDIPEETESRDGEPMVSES", "test": "GEF-H1 overexpression-induced cell spreading / cell shape morphological assay", "format": "cell-based"}, "GEF-H1 [5]": {"tested_on": "GEF-H1", "test": "SRE / αSMA promoter luciferase reporter gene assays of GEF-H1 signalling", "format": "cell-based", "conditions": "GEF-H1 overexpression"}, "p114RhoGEF": {"molecular_target": "T2, p114RhoGEF (Homo sapiens, UniProt Q6ZSZ5)", "T2 sequence (Q6ZSZ5 1-1015 isoform Q6ZSZ5-2)": "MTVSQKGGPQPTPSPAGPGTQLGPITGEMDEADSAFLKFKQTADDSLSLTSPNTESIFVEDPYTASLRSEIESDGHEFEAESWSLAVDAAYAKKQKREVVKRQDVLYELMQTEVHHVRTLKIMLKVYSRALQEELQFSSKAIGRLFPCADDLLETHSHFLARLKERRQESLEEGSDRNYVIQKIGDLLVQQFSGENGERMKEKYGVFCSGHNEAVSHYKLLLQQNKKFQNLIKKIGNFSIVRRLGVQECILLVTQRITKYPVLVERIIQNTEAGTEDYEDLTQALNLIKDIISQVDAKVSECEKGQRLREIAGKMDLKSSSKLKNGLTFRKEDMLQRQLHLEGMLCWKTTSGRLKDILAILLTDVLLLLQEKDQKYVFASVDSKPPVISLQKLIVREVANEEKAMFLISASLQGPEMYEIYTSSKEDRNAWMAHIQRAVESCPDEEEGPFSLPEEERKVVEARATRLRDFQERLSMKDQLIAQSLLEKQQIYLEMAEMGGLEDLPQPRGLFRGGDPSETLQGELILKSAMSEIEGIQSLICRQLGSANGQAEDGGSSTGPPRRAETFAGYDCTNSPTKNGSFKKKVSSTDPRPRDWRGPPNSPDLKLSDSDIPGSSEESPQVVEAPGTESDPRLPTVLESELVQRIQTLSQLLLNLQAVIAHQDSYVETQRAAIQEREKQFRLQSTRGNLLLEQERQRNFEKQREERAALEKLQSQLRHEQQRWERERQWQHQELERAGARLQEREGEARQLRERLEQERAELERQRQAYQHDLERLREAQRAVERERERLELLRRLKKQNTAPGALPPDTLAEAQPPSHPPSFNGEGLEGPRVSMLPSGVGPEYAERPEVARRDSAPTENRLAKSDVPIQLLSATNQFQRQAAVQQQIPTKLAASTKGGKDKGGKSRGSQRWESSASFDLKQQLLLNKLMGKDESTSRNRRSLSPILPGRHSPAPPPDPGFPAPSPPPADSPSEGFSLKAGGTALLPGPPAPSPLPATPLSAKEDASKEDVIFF", "test": "p114RhoGEF-induced cell rounding in MDCK cells (specificity)", "format": "cell-based"}, "active Dbl": {"tested_on": "active Dbl", "test": "αSMA / SRE reporter assays in cells overexpressing active Dbl (specificity)", "format": "cell-based", "conditions": "TAT-F1 4 μM"}, "[6]": {"tested_on": "primary retinal pigment epithelial (RPE) cells", "test": "TGF-β stimulation of primary RPE cells (αSMA induction, junctional markers)", "format": "cell-based", "description": "Inhibition of TGF-β signaling in primary retinal pigment epithelial (RPE) cells. (A, B) Primary RPE cells were incubated with TAT-P5 or TAT-F1 and stimulated with TGF-β for five days. (A) αSMA and, as a loading control, tubulin expression were analysed by immunoblotting. […] (B) Expression of the junctional marker ZO-1 and tubulin were determined. (C) Primary RPE cells were incubated with TGF-β as in (A) but with stapled-P5, and expression of αSMA positive cells was analysed by immunofluorescence.\n7) The inventors next tested the inhibitors in cell-based disease models. GEF-H1 drives fibrotic and degenrative responses in the RPE, which can be modelled by treating primary RPE cells with TGF-β."}, "[7]": {"tested_on": "Human primary endothelial cells", "test": "LPS-induced endothelial activation", "format": "cell-based", "from_the_text": "GEF-H1 inhibitors prevent endothelial inflammatory responses induced by LPS. Human primary endothelial cells were stimulated with LPS in the presence or absence of the indicated GEF-H1 inhibitors. […] TAT-P5 and TAT-F1 attenuate cytoskeletal remodelling, ICAM1 induction, and attenuate loss of barrier function.\n8) GEF-H1 regulates inflammatory responses in various cell types. […] Similarly, cytoskeletal remodeling and cell junction disruption was also attenuated in TNFα and Thrombin-stimulated endothelial cells."}, "[8]": {"conditions": "stapled-P5, different concentrations analysed"}}, "note": "Numbered stars: 1 amine (or outer) side, 2 acyl side, 3 side chain; on linkers, the order of the positions; unused ones are H or OH. Bridge positions count the residues as written; N and C are the ends. Square brackets hold non-standard residues; d marks the D form. Ends that are not written are not given here. Peptide text beside a SMILES is read from it. ξ: configuration not given here. ξαMeNle(6-ylidene) = CC(CCCC=[*:3])(N[*:1])C(=O)[*:2]", "data": [{"molecule": "CC(C)C[C@H](NC(=O)[C@@H](N)CCCNC(=N)N)C(=O)NC1(C)CCCC=CCCCC(C)(C(=O)N2CCC[C@H]2C(=O)N[C@@H](CC(=O)O)C(=O)N[C@H](C(=O)O)[C@@H](C)O)NC(=O)[C@H](CO)NC(=O)[C@H](C)NC(=O)[C@@H]2CCCN2C1=O", "note": "(stereo partly shown) [stapled-P5, RL(X)PAS(X)PDT; X = 2,(4, pentenyl)alanine] (H-RL[ξαMeNle(6-ylidene)]PAS[ξαMeNle(6-ylidene)]PDT-OH; staple 3-7)", "values": [{"measurement": "cell toxicity by release of LDH in the medium", "setting": "MDCK and HEK293 cells [1]; [8]", "value": "No significant cell toxicity"}, {"measurement": "cell toxicity by caspase 3/7 activity in cell extracts", "setting": "MDCK and HEK293 cells [2]; [8]", "value": "No significant cell toxicity"}]}, {"molecule": "GQEDYDRLRPASYPDTDVI (P5 amino acid sequence) [Peptide P5]", "values": [{"measurement": "inhibition of the interaction between RhoA and constitutively active GEF-H1", "setting": "[3]", "value": "inhibited the interaction"}, {"measurement": "inhibition of overexpressed GEF-H1, comparison of P1 to P5", "setting": "GEF-H1 [4]; morphological assay (cell spreading) and SRE-driven reporter assay, peptide transfection", "value": "most effective inhibitor"}]}, {"molecule": "GRKKRRQRRRPWQGQEDYDRLRPASYPDTDVI [TAT-P5]", "values": [{"measurement": "cell toxicity by release of LDH in the medium", "setting": "MDCK and HEK293 cells [1]; TAT-P5 5-20 μM", "value": "No significant cell toxicity"}, {"measurement": "cell toxicity by caspase 3/7 activity in cell extracts", "setting": "MDCK and HEK293 cells [2]; TAT-P5 5-20 μM", "value": "No significant cell toxicity"}]}, {"molecule": "B1", "values": [{"measurement": "inhibition of the interaction between RhoA and constitutively active GEF-H1", "setting": "[3]", "value": "inhibited the interaction"}, {"measurement": "auto-inhibitory activity / block of GEF-H1 function by CTD fragments", "setting": "GEF-H1 [4]; FIGS. 4 and 5 (cell spreading, SRE reporter, pulldown)", "value": "blocks GEF-H1 function"}]}, {"molecule": "B2", "values": [{"measurement": "transcription of the SRE-containing alpha-smooth muscle actin (αSMA) promoter", "setting": "GEF-H1 [5]", "value": "inhibit transcription"}, {"measurement": "inhibition of p114RhoGEF overexpression-induced cell rounding", "setting": "p114RhoGEF", "value": "not inhibited"}, {"measurement": "transcription from the αSMA promoter in cells overexpressing active Dbl", "setting": "active Dbl", "value": "do not inhibit transcription"}, {"measurement": "cell toxicity by release of LDH in the medium", "setting": "MDCK and HEK293 cells [1]; TAT-F1 1-4 μM", "value": "No significant cell toxicity"}, {"measurement": "cell toxicity by caspase 3/7 activity in cell extracts", "setting": "MDCK and HEK293 cells [2]; TAT-F1 1-4 μM", "value": "No significant cell toxicity"}, {"measurement": "downregulation of junctional markers", "setting": "[6]; primary RPE cells treated with TGF-β, FIG. 11", "value": "inhibit downregulation"}, {"measurement": "TGF-β-induced induction of αSMA, a marker of epithelial fibrosis", "setting": "[6]; primary RPE cells, FIG. 11", "value": "effectively suppress"}, {"measurement": "TGF-β induced αSMA expression normalised by tubulin (immunoblot)", "setting": "[6]; primary RPE cells, TGF-β for five days", "value": "concentration-dependent repression"}, {"measurement": "LPS-induced ICAM1 induction", "setting": "[7]; immunoblotting", "value": "attenuate"}, {"measurement": "LPS-induced cytoskeletal remodelling", "setting": "[7]; immunofluorescence", "value": "attenuate"}, {"measurement": "LPS-induced loss of barrier function", "setting": "[7]; paracellular permeability", "value": "attenuate"}]}]}
